# Measured values: paper PMC10073072 (2023)
# Tests used:
# METTL9^46–318 = METTL9^46–318 (human, UniProt Q9H1A3 46-318); experiment: ITC
# [1] = target: METTL9^M6 (METTL9^46–318 with six mutations) (human, UniProt Q9H1A3 46-318); experiment: ITC
# Sequence of METTL9^M6 (METTL9^46–318 with six mutations) (Q9H1A3 other isoform, or with tags, fused parts or gaps): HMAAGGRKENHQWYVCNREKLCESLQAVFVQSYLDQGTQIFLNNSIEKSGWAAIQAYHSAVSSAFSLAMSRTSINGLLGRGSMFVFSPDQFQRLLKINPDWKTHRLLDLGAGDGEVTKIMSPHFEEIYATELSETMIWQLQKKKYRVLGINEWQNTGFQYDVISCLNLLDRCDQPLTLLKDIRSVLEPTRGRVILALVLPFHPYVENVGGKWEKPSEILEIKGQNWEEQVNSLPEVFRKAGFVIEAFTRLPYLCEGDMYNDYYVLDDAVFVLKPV
# Sequence of METTL9^46–318 (Q9H1A3 46-318): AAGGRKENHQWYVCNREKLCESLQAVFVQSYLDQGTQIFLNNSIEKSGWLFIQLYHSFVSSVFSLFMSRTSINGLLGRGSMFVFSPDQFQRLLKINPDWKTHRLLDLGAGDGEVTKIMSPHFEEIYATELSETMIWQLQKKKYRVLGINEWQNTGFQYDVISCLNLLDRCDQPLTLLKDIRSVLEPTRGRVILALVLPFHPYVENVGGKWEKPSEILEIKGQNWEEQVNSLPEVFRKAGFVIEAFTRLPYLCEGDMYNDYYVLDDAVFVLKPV
Kd (METTL9^46–318),Kd [1],Binder
2.3 µM,3.6 µM,RGHGHSHGKGC [mouse S100A9^101–111 peptide]
9.3 µM,9 µM,GHQGHSHGHQGGY [SLC39A5^369–380 peptide]
